Measured values taken from patent US8889621B2, “Inhibiting binding of FGF23 to the binary FGFR-Klotho complex for the treatment of hypophosphatemia” (New York University, priority 2009, dated 2014).

Target: T1, FGFR1c-Klotho complex (UniProt O35082+P11362)
T1 construct: The ectodomain of murine Klotho (A35 to K982) was purified from culture media; FLAG (C); made in house; host or cells: E. coli (FGFR1c); HEK293 conditioned media (Klotho ectodomain)
T1 sequence (P11362 142-365): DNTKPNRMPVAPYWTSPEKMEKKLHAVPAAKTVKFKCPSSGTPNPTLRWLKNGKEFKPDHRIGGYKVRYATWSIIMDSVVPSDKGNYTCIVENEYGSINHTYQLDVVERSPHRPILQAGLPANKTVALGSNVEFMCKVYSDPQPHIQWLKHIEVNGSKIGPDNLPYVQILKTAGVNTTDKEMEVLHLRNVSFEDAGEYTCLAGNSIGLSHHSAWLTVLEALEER
T1 sequence (O35082 35-982): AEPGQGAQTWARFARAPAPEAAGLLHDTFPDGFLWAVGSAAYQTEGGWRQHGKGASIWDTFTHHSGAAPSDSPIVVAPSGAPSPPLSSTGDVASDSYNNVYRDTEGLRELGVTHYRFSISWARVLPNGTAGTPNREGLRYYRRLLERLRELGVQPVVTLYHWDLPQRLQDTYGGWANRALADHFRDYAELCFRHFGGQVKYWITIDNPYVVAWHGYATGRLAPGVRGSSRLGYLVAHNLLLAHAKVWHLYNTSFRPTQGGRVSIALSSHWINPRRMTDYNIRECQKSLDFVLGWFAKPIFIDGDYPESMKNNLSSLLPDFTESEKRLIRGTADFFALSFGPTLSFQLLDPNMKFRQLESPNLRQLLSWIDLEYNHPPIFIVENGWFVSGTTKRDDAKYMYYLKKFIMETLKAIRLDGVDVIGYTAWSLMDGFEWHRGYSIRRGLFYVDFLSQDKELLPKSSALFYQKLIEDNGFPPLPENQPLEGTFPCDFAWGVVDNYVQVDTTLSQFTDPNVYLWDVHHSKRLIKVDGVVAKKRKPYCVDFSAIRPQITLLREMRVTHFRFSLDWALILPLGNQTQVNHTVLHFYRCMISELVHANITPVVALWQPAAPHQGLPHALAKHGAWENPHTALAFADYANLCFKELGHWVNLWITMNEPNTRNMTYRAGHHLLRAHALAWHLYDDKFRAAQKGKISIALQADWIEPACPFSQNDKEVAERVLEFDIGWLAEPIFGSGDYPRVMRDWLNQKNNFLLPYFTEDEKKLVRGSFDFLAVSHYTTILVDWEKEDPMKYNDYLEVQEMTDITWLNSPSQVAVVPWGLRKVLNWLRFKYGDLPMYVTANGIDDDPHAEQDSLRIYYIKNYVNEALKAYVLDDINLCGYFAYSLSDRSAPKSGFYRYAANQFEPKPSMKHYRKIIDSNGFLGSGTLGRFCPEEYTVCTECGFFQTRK
Assay: Size-exclusion chromatography of ternary complex formation
Assay type: binding, human FGFR1c, murine Klotho
Conditions: 1.0 M NaCl, pH7.5
Method: Size-exclusion chromatography may also be used to determine that an agent specifically binds the binary FGFR-Klotho complex. One aspect of the present invention utilizes size-exclusion chromatography. The size-exclusion chromatography experiments were performed on a HiLoad™ 16/60 Superdex™ 200 prep grade column. Because of poor solubility of FGF23 proteins and FGFR1c ectodomain in low salt buffer, the experiments were carried out with 25 mM HEPES-NaOH buffer, pH7.5, containing 1.0 M NaCl. Sample injection volume was 0.3 to 1.0 ml, and the flow rate was 1.0 ml min^−1. Protein retention times were determined by absorbance at 280 nm. The column was calibrated with ferritin (440 kDa), immunoglobulin G (150 kDa), albumin (69.3 kDa), ovalbumin (44.3 kDa), and carbonic anhydrase (28.8 kDa). The void volume was determined using blue dextran 2,000. […]
Size-exclusion chromatography experiments were performed on a HiLoad™ 16/60 Superdex™ 200 prep grade column (GE Healthcare) mounted on an ÄKTApurifier (GE Healthcare). […] Protein retention times were determined by absorbance at 280 nm. […] The void volume was determined using blue dextran 2,000. […]

co-elution with the FGFR1c-Klotho complex: co-eluted with the FGFR1c-Klotho complex
B1: FGF23^28-251: human FGF23 (A28 to I251), bioactive full-length ligand expressed in E. coli (protein, listed as Homo sapiens)
chain: ASPLLGSSWGGLIHLYTATARNSYHLQIHKNGHVDGAPHQTIYSALMIRSEDAGFVVITGVMSRRYLCMDFRGNIFGSHYFDPENCRFQHQTLENGYDVYHSPQYHFLVSLGRAKRAFLPGMNPPPYSQFLSRRNEIPLIHFNTPIPRRHTRSAEDDSERDPLNVLKPRARMTPAPASCSQELPSAEDNSPMASDPLGVVRGGRVNTHAGGTGPEGCRPFAKFI
